# Measurements from patent publication US7977313B2, “Methods and compositions for promoting localization of pharmaceutically active agents to bone” (Affinergy, Inc., priority 2007, dated 2011).
# Like-named read-outs stand apart in the source and are kept apart here. Where a SMILES comes first, the peptide text is derived from it. The star is where a group is joined. Biotin = O=C1N[C@H]2[C@H](CS[C@H]2CCCCC(=O)*)N1
# Assays:
# BMP2 = biological target: T1, BMP2 (Homo sapiens, UniProt P12643); experiment: ELISA-format binding to BMP family members; settings: ELISA-format assay
# T1 sequence (P12643 283-396): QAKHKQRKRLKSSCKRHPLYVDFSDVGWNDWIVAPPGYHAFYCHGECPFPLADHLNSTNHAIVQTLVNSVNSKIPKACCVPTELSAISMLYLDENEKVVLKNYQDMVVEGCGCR
# Procedure: (§1) Exemplary peptides were tested for their ability to bind with specificity to members of the BMP family in an ELISA-format assay. […] For example, BMP2-mediates transdifferentiation of C2C12 myoblasts into osteoblasts; and when treated with BMP-2, the alkaline phosphatase activity in C2C12 myoblasts was induced.
# BMP14 = biological target: T2, BMP14 (Homo sapiens, UniProt P43026); experiment: ELISA-format binding to BMP family members; settings: ELISA-format assay
# T2 sequence (P43026 382-501): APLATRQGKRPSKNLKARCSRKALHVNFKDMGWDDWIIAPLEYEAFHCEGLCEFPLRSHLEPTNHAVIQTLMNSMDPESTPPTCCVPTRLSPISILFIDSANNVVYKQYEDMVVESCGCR
# Procedure: as §1
# BMP4 = biological target: T3, BMP4 (Homo sapiens, UniProt P12644); experiment: ELISA-format binding to BMP family members; settings: ELISA-format assay
# T3 sequence (P12644 293-408): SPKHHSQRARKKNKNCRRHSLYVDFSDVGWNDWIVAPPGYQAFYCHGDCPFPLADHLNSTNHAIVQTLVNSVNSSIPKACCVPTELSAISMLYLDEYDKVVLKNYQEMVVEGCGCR
# Procedure: as §1
# BMP7 = biological target: T4, BMP7 (Homo sapiens, UniProt P18075); experiment: ELISA-format binding to BMP family members; settings: ELISA-format assay
# T4 sequence (P18075 293-431): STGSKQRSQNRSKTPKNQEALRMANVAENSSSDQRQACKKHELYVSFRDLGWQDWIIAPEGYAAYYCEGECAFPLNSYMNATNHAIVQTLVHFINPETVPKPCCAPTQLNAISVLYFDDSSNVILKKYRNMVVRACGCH
# Procedure: as §1
# BMP5 = biological target: T5, BMP5 (Homo sapiens, UniProt P22003); experiment: ELISA-format binding to BMP family members; settings: ELISA-format assay
# T5 sequence (P22003 317-454): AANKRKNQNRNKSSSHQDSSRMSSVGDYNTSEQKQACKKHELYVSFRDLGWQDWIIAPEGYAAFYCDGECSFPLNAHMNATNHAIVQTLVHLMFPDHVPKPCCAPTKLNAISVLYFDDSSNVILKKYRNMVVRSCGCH
# Procedure: as §1
# [1] = phage display; cited from earlier work
# human growth hormone = human growth hormone (Homo sapiens, UniProt P01241); settings: cited from earlier work
# Chain of human growth hormone (P01241 27-217): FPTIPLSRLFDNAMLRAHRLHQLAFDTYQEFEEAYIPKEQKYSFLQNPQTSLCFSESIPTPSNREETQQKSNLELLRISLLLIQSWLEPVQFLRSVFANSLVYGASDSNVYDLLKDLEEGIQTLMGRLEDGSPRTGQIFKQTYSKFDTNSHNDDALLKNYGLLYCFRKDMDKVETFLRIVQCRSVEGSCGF
# cancellous bone (CNB) = experiment: Biotinylated peptide binding to cancellous bone
# Procedure: (§2) Relative binding strengths of the peptides to bone, also used as a measure of binding specificity, were determined by testing serial dilutions of the peptide for binding to bone, as represented by DBM. Plotting the absorbance observed across the concentration range for each peptide sequence yielded a binding curve of the peptides to its target substrate from which can be determined an EC50. The goal of the screenings and selections was to identify one or more peptides that bind to the selected substrate with binding specificity, with an EC50 of less than or equal to about 10 μM, and for some embodiments, in the nanomolar range (<1 μM). […] As a specific example, DBM was placed in a microtiter plate at a concentration of 3 mg equivalents per well, and then the wells were blocked with buffer containing 1% BSA for 1 hour at room temperature. The buffer containing 1% BSA was then aspirated from each well, and added to the wells were the serial dilutions of biotinylated peptide. The microtiter plates were incubated for 1 hour at room temperature on a plate shaker. The DBM was then allowed to settle, and the buffer was then aspirated from the wells. The DBM was washed three times with buffer-T, and then streptavidin-alkaline phosphatase was added. The microtiter plates were incubated for 1 hour at room temperature on a plate shaker. The DBM was then allowed to settle, and the buffer was then aspirated from the wells. The DBM was washed three times with buffer-T, pNPP (p-nitrophenyl phosphate) was used to develop the assay, and the absorbance was recorded at 405 nm. An estimate of the relative affinity (binding specificity, EC50) of a peptide for bone can be made by determining the concentration of peptide that gives one-half the maximal signal in the assay. Using the methodology illustrated in Example 1, the peptides illustrated in Table 3 were also tested for relative binding strength to demineralized cortical bone, and to cancellous bone, additional evidence of binding specificity for bone.
# [2] = biological target: demineralized bone matrix (DBM); experiment: Biotinylated peptide binding to demineralized bone matrix (ELISA-type, streptavidin-alkaline phosphatase/pNPP); set-up: species or system human
# Procedure: Relative binding strengths of the peptides to bone, also used as a measure of binding specificity, were determined by testing serial dilutions of the peptide for binding to bone, as represented by DBM. Plotting the absorbance observed across the concentration range for each peptide sequence yielded a binding curve of the peptides to its target substrate from which can be determined an EC50. The goal of the screenings and selections was to identify one or more peptides that bind to the selected substrate with binding specificity, with an EC50 of less than or equal to about 10 μM, and for some embodiments, in the nanomolar range (<1 μM).
# As a specific example, DBM was placed in a microtiter plate at a concentration of 3 mg equivalents per well, and then the wells were blocked with buffer containing 1% BSA for 1 hour at room temperature. The buffer containing 1% BSA was then aspirated from each well, and added to the wells were the serial dilutions of biotinylated peptide. The microtiter plates were incubated for 1 hour at room temperature on a plate shaker. The DBM was then allowed to settle, and the buffer was then aspirated from the wells. The DBM was washed three times with buffer-T, and then streptavidin-alkaline phosphatase was added. The microtiter plates were incubated for 1 hour at room temperature on a plate shaker. The DBM was then allowed to settle, and the buffer was then aspirated from the wells. The DBM was washed three times with buffer-T, pNPP (p-nitrophenyl phosphate) was used to develop the assay, and the absorbance was recorded at 405 nm. An estimate of the relative affinity (binding specificity, EC50) of a peptide for bone can be made by determining the concentration of peptide that gives one-half the maximal signal in the assay.
# Example 1 illustrates methods to determine the relative binding strengths of peptide to bone. […] A biotin molecule was linked to the C-terminal lysine. Also shown in Table 3 are the relative binding strengths expressed as EC50 (μM) to bone as represented by DBM of human origin. It is noted that the EC50 values were the same or substantially similar when DBM of rabbit origin was used.
# Relative binding strength embodiments of the compositions to bone, also used as a measure of binding specificity, were determined by testing serial dilutions of the composition for binding to bone, as described in Example 1 Section B. Plotting the absorbance observed across the concentration range for each composition yielded a binding curve and rough dissociation constant of the composition for bone. Similar to a peptide having binding specificity for bone from which the composition is made, one property of the composition embodiments is that they bind to bone with binding specificity as measured by an EC50 of less than or equal to about 10 μM, and for some embodiments, in the nanomolar range (<1 μM). Using the methods outlined in Example 1B herein, assayed were the relative binding strengths of […] illustrative composition embodiments which include the amino acid sequences shown in SEQ ID NOs: 137, 138, 139, 140, 141 & 142, see Table 7, and synthesized to include a C-terminal amino linker which was biotinylated to facilitate determination of the relative binding strengths to bone. Shown in Table 8 are the relative binding strengths of composition embodiments to bone, as represented by DBM, expressed as EC50 (in μM).
# [3] = biological target: demineralized cortical bone (DCB); experiment: Biotinylated peptide binding to demineralized cortical bone
# Procedure: as §2
# stem cells = settings: cited from earlier work
# [4] = system: human adipose-derived stem cells; experiment: Binding to adipose-derived stem cells
# Source text: In another embodiment, the pharmaceutically active agent comprises a cell. Thus, a coating composition embodiment includes at least one peptide having binding specificity to bone coupled to at least one peptide having binding specificity for cells. Such coating composition may further include cells bound to the at least one peptide having binding specificity for the cells. For example, RGDX peptides wherein X is any amino acid (SEQ ID NO:119) have been described as binding stem cells, mesenchymal stem cells, and osteoblasts.
# [5] = DBM of human origin, biotinylated peptide, read-out: Binding specificity for bone (e.g., DBM) EC50
# [6] = demineralized bone matrix, read-out: EC50 (μM) for DBM
compound,measurement,setting,value
91 (GGGAWEAFSSLSGSRV) [compound 91],Binding specificity for BMP2,BMP2,displayed binding specificity
same,Binding specificity for BMP14,BMP14,displayed binding specificity
same,Binding specificity for BMP4,BMP4,displayed binding specificity
same,Binding specificity for BMP7,BMP7,displayed binding specificity
same,Binding specificity for BMP5,BMP5,displayed binding specificity
58 (SSWEVFSSLESGSVGAGAGSR) [compound 58],Binding specificity for BMP2,BMP2,showed binding specificity
same,Binding specificity for BMP14,BMP14,showed binding specificity
same,Binding specificity for BMP4,BMP4,showed binding specificity
same,Binding specificity for BMP7,BMP7,showed binding specificity
123 (HTPHPDASIQGV) [compound 123],Binding to paclitaxel,[1],bind to paclitaxel
124 (VMNV) [compound 124],Binding to human growth hormone,human growth hormone,found to bind to human growth hormone
CC[C@H](C)[C@H](NC(=O)[C@@H](N)CO)C(=O)N[C@@H](Cc1ccccc1)C(=O)N[C@@H](CO)C(=O)N[C@H](C(=O)N[C@@H](Cc1c[nH]c2ccccc12)C(=O)N[C@@H](CC(N)=O)C(=O)N1CCC[C@H]1C(=O)N[C@@H](Cc1c[nH]c2ccccc12)C(=O)N[C@@H](CO)C(=O)N1CCC[C@H]1C(=O)N[C@@H](Cc1ccc(O)cc1)C(=O)N[C@@H](CO)C(=O)N[C@H](C(=O)N[C@@H](CO)C(=O)N[C@@H](CCCNC(=N)N)C(=O)NCC(=O)N[C@@H](CO)C(=O)N[C@@H](CO)C(=O)NCC(=O)N[C@@H](CCCCNC(=O)CCCC[C@@H]1SC[C@@H]2NC(=O)N[C@@H]21)C(=O)O)C(C)C)[C@@H](C)O [compound 40] (H-SIFSTWNPWSPYSVSRGSSGK(Biotin)-OH),EC50,cancellous bone (CNB),< 1 µM
same,EC50,[2]; [5],< 1 µM
same,EC50,[2]; [6],< 1 µM
same,EC50,[3],< 1 µM
CC(C)[C@H](NC(=O)[C@@H]1CCCN1C(=O)[C@H](C)NC(=O)[C@H](C)NC(=O)[C@H](CO)NC(=O)CNC(=O)[C@H](CC(N)=O)NC(=O)[C@H](Cc1c[nH]c2ccccc12)NC(=O)[C@H](Cc1ccccc1)NC(=O)CNC(=O)[C@H](Cc1c[nH]c2ccccc12)NC(=O)[C@H](Cc1c[nH]c2ccccc12)NC(=O)[C@@H](N)CO)C(=O)N[C@@H](Cc1c[nH]c2ccccc12)C(=O)N[C@@H](CO)C(=O)N[C@@H](CCCNC(=N)N)C(=O)NCC(=O)N[C@@H](CO)C(=O)N[C@@H](CO)C(=O)NCC(=O)N[C@@H](CCCCNC(=O)CCCC[C@@H]1SC[C@@H]2NC(=O)N[C@@H]21)C(=O)O [compound 41] (H-SWWGFWNGSAAPVWSRGSSGK(Biotin)-OH),EC50,cancellous bone (CNB),≤ 0.1 µM
same,EC50,[2]; [5],< 0.1 µM
same,EC50,[2]; [6],< 0.1 µM
same,EC50,[3],< 0.1 µM
C[C@H](NC(=O)CNC(=O)[C@H](CO)NC(=O)CNC(=O)[C@H](Cc1c[nH]c2ccccc12)NC(=O)[C@H](Cc1c[nH]c2ccccc12)NC(=O)[C@H](Cc1c[nH]c2ccccc12)NC(=O)[C@H](CO)NC(=O)CNC(=O)[C@H](Cc1ccccc1)NC(=O)[C@@H](N)CO)C(=O)N[C@@H](C)C(=O)N[C@@H](CO)C(=O)N[C@@H](CO)C(=O)N[C@@H](CCCNC(=N)N)C(=O)NCC(=O)N[C@@H](CO)C(=O)N[C@@H](CO)C(=O)NCC(=O)N[C@@H](CCCCNC(=O)CCCC[C@@H]1SC[C@@H]2NC(=O)N[C@@H]21)C(=O)O [compound 42] (H-SFGSWWWGSGAASSRGSSGK(Biotin)-OH),EC50,cancellous bone (CNB),< 0.5 µM
same,EC50,[2]; [5],< 0.1 µM
same,EC50,[2]; [6],< 0.1 µM
same,EC50,[3],< 0.1 µM
120 (ALPSTSSQMPQL) [compound 120],Binding to stem cells,stem cells,binding to stem cells
121 (SSSCQHVSLLRPSAALGPDNCSR) [compound 121],Binding specificity for human adipose-derived stem cells,[4],has binding specificity
93 (SSSVDLYFPLKGDVVSR) [compound 93],Binding specificity for BMP2,BMP2,showed binding specificity
same,Binding specificity for BMP14,BMP14,showed binding specificity
same,Binding specificity for BMP4,BMP4,showed binding specificity
same,Binding specificity for BMP7,BMP7,showed binding specificity
118 (GGALGFPLKGEVVEGWA) [compound 118],Binding specificity for BMP2,BMP2,showed binding specificity
same,Binding specificity for BMP14,BMP14,showed binding specificity
same,Binding specificity for BMP4,BMP4,showed binding specificity
same,Binding specificity for BMP7,BMP7,showed binding specificity
